Data from patent US20230049752A1 (University of California, published 2023).

Assays:
[1] = target: human Claudin-6 (CLDN6) (human) (UniProt P56747); assay: FACS, limiting dilution, ARK2 cells
[2] = target: human Claudin-6 (CLDN6) (human) (UniProt P56747); assay: FACS, limiting dilution, OV90 cells
[3] = target: human Claudin-6 (CLDN6) (human) (UniProt P56747); assay: FACS, limiting dilution, UMUC4 cells

Row | FACS signal at 0.32 nM [1] | FACS signal at 1.6 nM [1] | FACS signal at 8 nM [1] | FACS signal at 40 nM [1] | FACS signal at 200 nM [1] | FACS signal at 1000 nM [1] | FACS signal at 0.32 nM [2] | FACS signal at 1.6 nM [2] | FACS signal at 8 nM [2] | FACS signal at 40 nM [2] | FACS signal at 200 nM [2] | FACS signal at 1000 nM [2] | FACS signal at 0.32 nM [3] | FACS signal at 1.6 nM [3] | FACS signal at 8 nM [3] | FACS signal at 40 nM [3] | FACS signal at 200 nM [3] | FACS signal at 1000 nM [3] | Binder
1 | 876 | 2350 | 6290 | 16000 | 47000 | 78700 | 586 | 1910 | 4500 | 8570 | 24000 | 53900 | 1440 | 1790 | 3940 | 7970 | 16700 | 37300 | AB S7 (antibody, V domains shown) VH: QVQLVQSGAEVKKPGASVKMSCKASGYTFTTYTIHWVRQAPGQGLEWIGFINPSSGYTEYAQKFQGRVTLTADKSTSTVYMELSSLRSEDTAVYFCANGDYYVAYWGQGTLVTVSS VL: DIQLTQSPSSLSASVGDRVTMTCTASSSVSSTYFHWYQQKPGKAPKLWIYSTSNLASGVPSRFSGSGSGTDYTLTISSMQPEDAATYYCHQYHRSPLTFGQGTKLEIK
2 | 354 | 438 | 1720 | 6350 | 31500 | 62500 | 432 | 515 | 1360 | 4590 | 15900 | 42000 | 518 | 651 | 1300 | 4120 | 13500 | 35000 | AB S4 (antibody, V domains shown) VH: EVQLLESGGGLVQPGGSMRLSCAASGFTFSNYWMNWVRQAPGKGLEWIAQIRLKSDNYATHYTDSVKGRFTISRDDSKSTVYLQMNSLRAEDTGTYYCNDGPPSGSWGQGTLLTVSS VL: DIQMTQSPSSLSASVGDRVTITCRISENIYSYLAWYQQKPGKAPKLLVYNAKILVEGVPSRFSGSGSGTDFTLTISSLQPEDFGTYYCQHHYTVPWTFGQGTKLEIK
3 | 372 | 997 | 5560 | 25600 | 78800 |  | 558 | 1040 | 5220 | 22500 | 73300 |  | 481 | 885 | 2340 | 7080 | 19000 | 47200 | AB S5 (antibody, V domains shown) VH: EVQLLESGGGLVQPGGSMRLSCAASGFTFSNYWMNWVRQAPGKGLEWLAQIRLKSDNYATHYTDSVKGRFTISRDDSKRTVYLQMNSLRAEDTGIYYCSDGPPSGSWGQGTLLTVSS VL: DIQMTQSPSSLSASVGDRVTITCRISENIYSYLAWYQQKPGKAPKLLVYNAKILVEGVPSRFSGSGSGTDFTLTISSLQPEDFGTYYCQHHYTVPWTFGQGTKLEIK
4 | 448 | 765 | 3800 | 14600 | 54100 |  | 467 | 791 | 2950 | 12600 | 38600 | 76600 | 1320 | 1690 | 3300 | 4120 | 12500 | 42300 | AB S6 (antibody, V domains shown) VH: EVQLLESGGGLVQPGGSMRLSCAASGFTFSNYWMNWVRQAPGKGLEWLAQIRLKSDNYVTHYADSVKGRFTISRDDSKRTVYLQMNSLRAEDTGTYYCNDGPPSGSWGQGTLLTVSS VL: DIQMTQSPSSLSASVGDRVTITCRISENIYSYLAWYQQKPGKAPKLLVYNAKILVEGVPSRFSGSGSGTDFTLTISSLQPEDFGTYYCQHHYTVPWTFGQGTKLEIK
